Experimental findings from article PMC7040222 are described below.

The data set deals with N=C(N)NCCC[C@H](NC(=O)[C@H](Cc1ccccc1)NC(=O)OCc1ccccc1)C(=O)Nc1ccc([N+](=O)[O-])cc1. Briefly: purified protein. The settings on record: proenzyme heat-shocked 10 min at 56°C, then activated, assay at room temperature.

Sequence of EP-B2 (Hordeum vulgare) (chain, as listed by the source): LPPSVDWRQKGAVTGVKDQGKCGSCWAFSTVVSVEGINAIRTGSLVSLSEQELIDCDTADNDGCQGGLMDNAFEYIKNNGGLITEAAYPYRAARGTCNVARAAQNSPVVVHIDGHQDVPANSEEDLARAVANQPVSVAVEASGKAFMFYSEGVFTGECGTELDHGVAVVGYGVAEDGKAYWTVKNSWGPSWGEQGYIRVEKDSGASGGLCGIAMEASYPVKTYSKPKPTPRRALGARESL
Sequence of EP-B2 (Hordeum vulgare; K311A) (chain, as listed by the source K311A): as the sequence (chain, as listed by the source) above, with K178A counted along it

As to EP-B2 (Hordeum vulgare), the Km (as a rule, the substrate concentration at which the rate is half of its maximum) was 530.0 µM and the Vmax (in general, the rate approached at saturating substrate) worked out at 0.142 µM/min.
Turning to EP-B2 (Hordeum vulgare; K311A), where the note is “variant M3”, the Km amounted to 1188 µM and the Vmax was found to be 0.236 µM/min.
